Target: taxol stabilized microtubules prepared from phosphocellulose purified tubulin
Assay: co-sedimentation with taxol stabilized microtubules through a sucrose cushion, Western blot of pellet and supernatant

binding efficiency [%] | Substance
50 | E. coli synthesized tau (352 residue isoform), non-phosphorylated (from UniProt P10636 2-758)
50 | E. coli synthesized tau (352 residue isoform) phosphorylated in vitro by fyn (from UniProt P10636 2-758)

Source: US20050196844A1
